Experimental data: publication doi:10.1101/2024.07.18.604040

Biological target: recombinant human λS Full-Length free light chain (rλS-LC) (human)

stoichiometry N: 2
Substance: recombinant human λS Full-Length free light chain (rλS-LC) (natural protein)
